These results are taken from a protein production outcome set (Wang et al. 2014).

A short description of this data set: label from the status in PepcDB records.
As for “MGGLGYGCHPVPAVLDDEGNQLPDPGRRRTVIHDGSAADRQPGVQHRALADGRRQLARHRLLPGRARRVIAGQGCQRARPRSGEGRRRGVHGDLRHRIRHGPASLPDRGGRGRRAEALLVAEEHAMSRASRHRILAAMLSACLLSLLGGCTPLTVLAVLGGCKDGGSNGSSGGVTGSVTTGEVRDGMTIAQTKAWFNGSDGPDNVCQAYPDGQCTWWACMRGHKIGLDVGSYWGNGGDWAASATAAGWKTTRTDPVAGSIVSYPPGVADADTLYGHVAVVEAVDRTAGTVTISEMNGRGGLGIVNHRTHRINVGAVYILPNGSVSTNGSAGTDSTSSGSESSDSSSSSDSSSSSDPVEAAWTCSSSDSGSTDVVVDYDGDGTHATPEQARAIARKMIASYKDWGDGDYDALVWLWNKESGWQWNATNPSSGAYGIPQALPASKLASAGDDWKDNAATQIKWGLNYIAGRYGSPSAAKTFWLAHNWY”, the protein production result was “failed”.

“MGGLTLFAAQGCKAPKQVAEQAEHPNIIYVFPDQYRNQAMGFWNQEGFRDKVNFRGDPVHTPNIDTFARESMVLTSAQSNCPLSSPHRGMLLTGMYPNRSGVPLNCNSTRPISSLRDDAECIGDVFSKAGYDCAYFGKLHADFPTPNDPENPGQYVETQRPVWDAYTPKEQRHGFNYWYSYGTFDEHKNPHYWDTDGKRHDPKEWSPLHESGKVVSYLKNEGNVRDTKKPFFIMVGMNPPHSPYRSLNDCEEQDFNLYKDQPLDSLLIRPNVDLNMKKAESVRYYFASVTGVDRAFGQILEALKQLGLDKNTVVIFASDHGETMCSQRTDDPKNSPYSESMNIPFLVRFPGKIQPRVDDLLLSAPDIMPTVLGLCGLGDSIPSEVQGRNFAPLFFDEKAEIVRPAGALYIQNLDGEKDKDGLVQSYFPSSRGIKTARYTLALYIDRKTKQLKKSLLFDDVNDPYQLNNLPLDENKEVVEQLYREMGTMLKEIDDPWYTEKILSDRIPYLEHHHHHH”: the protein production result is on record as “failed”.

Regarding “MGHEAKHPIIIGITGNIGSGKSTVAALLRSWGYPVLDLDALAARARENKEEELKRLFPEAVVGGRLDRRALARLVFSDPERLKALEAVVHPEVRRLLMEELSRLEAPLVFLEIPLLFEKGWEGRLHGTLLVAAPLEERVRRVMARSGLSREEVLARERAQMPEEEKRKRATWVLENTGSLEDLERALKAVLAELTGGAKEGRG”, the protein production entry is “not failed”.

As to “MGHHHHHHENLYFQSHLKIMDVEGGALVDPDHIEEVETSMVIVVDDDDGDVAMVVEEDKHPMRDDPCIEDIMDDEHAPLVAELQSALNNPDDKQASEDPLLED”, the protein production entry was “failed”.

As to “MGHHHHHHENLYFQSHMTDFVELMNSMSSTFNSDCATSTAEGGTLLNLNLAEDKTLKWRNLANNQFASKEKKHKDKEEEERKEARNQEEIEDIKALLADVVDAAAVKLEEEEAQNAEKVEPHTKCEIEEEGRKEMEYDQDVAKQDSEMEKKQNGKATSITVKMES”, the protein production entry is recorded as “not failed”.

As for “MGHHHHHHSHADLPQWVSERLLQQINQLTNYEPVIGIMGKTGVGKSSLCNALFAGDISPVSDVAACTREPLRFRLQVGDRYITLMDLPGVGESGARDTEYAALYREQLPRLDLVLWLIKADDRALTVDEHFYHQVIGEVYRHKVLFVISQSDKAEPTSGGGQLSTAQKQNISRKICLLHELFQPVHPVCAVSVRLQWGLKVMAERMIKCLP”, the protein production entry was “not failed”.

For “MGHHHHHHSHAHTTTSMEIFGSPEQVWQLIGGFNSLPDWLPYIPSSKLTEGGRVRHLANPDGDTIIERLEVFNDKERYYTYSIMNAPFPVTNYLSTIQVKEGTESNTSLVEWSGTFTPVEVSDEEAINLFHGIYSDGLKALQQAF”, the protein production result was “not failed”.

“MGHHHHHHSHGQQSVSNKLLAWSGVLEWQEKPKPASVDANTKLTRSLPCQVYVNHGENLKTEQWPQKLIMQLIPQQLLTTLGPLFRNSRMVQFHFTNKDLESLKGLYRIMGNGFAGCVHFPHTAPCEVRVLMLLYSSKKKIFMGLIPYDQSGFVNGIRQVITN”: the protein production entry is listed as “not failed”.

In the case of “MGHHHHHHSHMAAAIASSLIRQKRQAREREKSNACKCVSSPSKGKTSCDKNKLNVFSRVKLFGSKKRRRRRPEPQLKGIVTKLYSRQGYHLQLQADGTIDGTKDEDSTYTLFNLIPVGLRVVAIQGVQTKLYLAMNSEGYLYTSELFTPECKFKESVFENYYVTYSSMIYRQQQSGRGWYLGLNKEGEIMKGNHVKKNKPAAHFLPKPLKVAMYKEPSLHDLTEFSRSGSGTPTKSRSVSGVLNGGKSMSHNEST”, the protein production result is “not failed”.

“MGHHHHHHSHMADNMTTTQIEVGPGATNATINFEAGILECYERFSWQRALDYPGQDRLHRLKRKLESRIKTHNKSEPENKRMSLEERKAIGVKMMKVLLFMDPSAGIEGFEPY”: the protein production entry is on record as “not failed”.

Turning to “MGHHHHHHSHMAGTVVLDDVELREAQRDYLDFLDDEEDQGIYQSKVRELISDNQYRLIVNVNDLRRKNEKRANRLLNNAFEELVAFQRALKDFVASIDATYAKQYEEFYVGLEGSFGSKHVSPRTLTSCFLSCVVCVEGIVTKCSLVRPKVVRSVHYCPATKKTIERRYSDLTTLVAFPSSSVYPTKDEENNPLETEYGLSVYKDHQTITIQEMPEKAPAGQLPRSVDVILDDDLVDKAKPGDRVQVVGTYRCLPGKKGGYTSGTFRTVLIACNVKQMS”, the protein production entry is “not failed”.

In the case of “MGHHHHHHSHMAKTYDYLFKLLLIGDSGVGKTCVLFRFSEDAFNSTFISTIGIDFKIRTIELDGKRIKLQIWDTAGQERFRTITTAYYRGAMGIMLVYDITNEKSFDNIRNWIRNIEEHASADVEKMILGNKCDVNDKRQVSKERGEKLALDYGIKFMETSAKANINVENAFFTLARDIKAKMDKKLEGNSPQGSNQGVKITPDQQKRSSFFRCVLL”, the protein production result is listed as “not failed”.

Regarding “MGHHHHHHSHMALKDYALEKEKVKKFLQEFYQDDELGKKQFKYGNQLVRLAHREQVALYVDLDDVAEDDPELVDSICENARRYAKLFADAVQELLPQYKEREVVNKDVLDVYIEHRLMMEQRSRDPGMV”, the protein production result is reported as “not failed”.

On to “MGHHHHHHSHMATGQDRVVALVDMDCFFVQVEQRQNPHLRNKPCAVVQYKSWKGGGIIAVSYEARAFGVTRSMWADDAKKLCPDLLLAQVRESRGKANLTKYREASVEVMEIMSRFAVIERASIDEAYVDLTSAVQERLQKLQGQPISADLLPSTYIEGLPQGPTTAEETVQKEGMRKQGLFQWLDSLQIDNLTSPDLQLTVGAVIVEEMRAAIERETGFQCSAGISHNKVLAKLACGLNKPNRQTLVSHGSVPQLFSQMPIRKIRSLGGKLGASVIEILGIEYMGELTQFTESQLQSHFGEKNGSWLYAMCRGIEHDPVKPRQLP”, for which the protein production result is listed as “not failed”.

With “MGHHHHHHSHMNSAEQTVTWLITLGVLESPKKTISDPEGFLQASLKDGVVLCRLLERLLPGTIEKVYPEPRSESECLSNIREFLRGCGASLRLELLFPPSQPPQHLVTTILLSASTFDANDLYQGQNFNKVLSSLVTLNKVTADIGLGSDSVCARPSSHRIKSFDSLGSQSLHTR”, the protein production result was “failed”.

With “MGHHHHHHSHMNSDSECPLSHDGYCLHDGVCMYIEALDKYACNCVVGYIGERCQYRDLKWWELR”, the protein production entry is “failed”.

“MGHHHHHHSHMQPAKEVTKASDGSLLGDLGHTPLSKKEGIKWQRPRLSRQALMRCCLVKWILSSTAPQGSDSSDSELELSTVRHQPEGLDQLQAQTKFTKKELQSLYRGFKNECPTGLVDEDTFKLIYAQFFPQGDATTYAHFLFNAFDADGNGAIHFEDFVVGLSILLRGTVHEKLKWAFNLYDINKDGYITKEEMLAIMKSIYDMMGRHTYPILREDAPAEHVERFFEKMDRNQDGVVTIEEFLEACQKDENIMSSMQLFENVI”: the protein production entry is recorded as “failed”.

“MGHHHHHHSHMSRVPPTVTNAVSWRSEGIKYKKNEVFIDVIESVNLLVNANGSVLLSEIVGTIKLKVFLSGMPELRLGLNDRVLFELTGRSKNKSVELEDVKFHQCVRLSRFDNDRTISFIPPDGDFELMSYRLSTQVKPLIWIESVIEKFSHSRVEIMVKAKGQFKKQSVANGVEISVPVPSDADSPRFKTSVGSAKYVPERNVVIWSIKSFPGGKEYLMRAHFGLPSVEKEEVEGRPPIGVKFEIPYFTVSGIQVRYMKIIEKSGYQALPWVRYITQSGDYQLRTS”: the protein production result is listed as “failed”.

As to “MGHHHHHHSHMVANPPASKESIDALPEILVTEDHGAVGQEMCCPICCSEYVKGEVATELPCHHYFHKPCVSIWLQKSGTCPVCRCMFPPPL”, the protein production entry is “failed”.

As to “MGHHHHHHSHRGAGRVSRWPPPHWLEAWRVSPRPLSPLSPATFGRGFIAVAVIPGLWARGRGCSSDRLPRPAGPARRQFQAASLLTRGWGRAWPWKQILKELDECYERFSRETDGAQK”, the protein production entry is “failed”.

For “MGHHHHHHSHRNLDSRTFITIGDRNFEVEADDLVTISELGRGAYGVVEKVRHAQSGTIMAVKRIRATVNSQEQKRLLMDLDINMRTVDCFYTVTFYGALFREGDVWICMELMDTSLDKFYRKVLDKNMTIPEDILGEIAVSIVRALEHLHSKLSVIHRDVKPSNVLINKEGHVKMCDFGISGYLVDSVAKTMDAGCKPYMAPERINPELNQKGYNVKSDVWSLGITMIEMAILRFPYESWGTPFQQLKQVVEEPSPQLPADRFSPEFVDFTAQCLRKNPAERMSYLELMEHPFFTLHKTKKTDIAAFVKEILGEDS”, the protein production entry is “failed”.

With “MGHHHHHHSHVRSPQNQYPAELMRRFELYFQGPSSNKPRVIREVRADSVGKLVTVRGIVTRVSEVKPKMVVATYTCDQCGAETYQPIQSPTFMPLIMCPSQECQTNRSGGRLYLQTRGSRFIKFQEMKMQEHSDQVPVGNIPRSITVLVEGENTRIAQPGDHVSVTGIFLPILRTGFRQVVQGLLSETYLEAHRIVK”, the protein production result is recorded as “failed”.

As for “MGHVSNSPFSVDVLVVGGGPAGSAAAIHAAKAGYSVLLIDAQPFPRDKTCGDGLTPRAVHQLEALGVDVTSRYRSFGLKLHGFGGSVTVPWPESHFGQVSSAMPRMKFDAMLWEMAAQHATTWTATASEVEIDSAIRSVTMSDGRVVKPRSVIVADGVRSTFGKLLGRTWHRGEVYGIAARSYCTTPRSTEPWMHSHLELRDDSTTLPGYGWIFPIGDGTANVGCGALSTDKRPAKINTKKLLRHYASQQTDWEFGTPQRVASALLPMGGAVSTIAGPNWMLIGDAAACVNPLNGEGIDYGLETAALAVAHLDNPLEWPHILRETYGEAFLLARTAARLLTYPQFLPLTGPIALRTPLMASAARLMGNLVTEEDKDIVARAWRAAGWGVTKIRGGSPLWDLEHHHHHH”, the protein production result is listed as “failed”.

For the sequence “MGICVSFRREDSNSSPTVKIVTVNGDLREYNVPVIASQVLEAESAAAYSSSSSSRPSSYFICDSDSLYYDDFIPAIKSEEPLQADQIYFVLPISKRQSRLTASDMAALAVKASVAIQNSVKKESRRRKKVRISPVMMLTGSNDSVNGNGSETTVKKGRPFVSKTAPVKASSGINRSGSVRNLRRYTSKRAKLAVRSFRLKLSTIYEGSVV”, the protein production result is reported as “failed”.

“MGICVVIPAFNAALTIEAVVRETLEQGLPLVVVDDGSEDGTADCVRGLPVNLVSHGRNRGKGAALKTGFAWALEYGFSGVITLDSDGQHDPTAITLLAETAKNDGWDILVASRFAQFNQMAGLRRHWNRFGAWCMKKRTGFQIDDSQSGFRYYSARLLRMVSLGKDGYDLEMEILMKAWQAGCTIGSVPVPARVADGRATSHFRPVRDTWNICMTFLRYMLEHHHHHH”: the protein production entry is recorded as “failed”.

Regarding “MGIEMSLKDIINSNRPSESRQLACALTFCGGFIDAYTYIQRGHTLSAGQTGNVIFFSSALADHNIPGMINRASTFIAFSLGLLLVGLFHKYVKSHYWRVFCLFPILVICIVVGFLPKSVPNYYIVPAIAFGLAVQNASFSKIEGMGYNNVFTTGNLKKSVVAWSAFFFGEDKSKYTAAVNYMMLVISFGLGAIVSALLQKIWVLKTIWIAVIFLAIINCIYIIAIRKHKKLDLSGKNDA”, the protein production entry was “failed”.
